Positions count from the first letter of the chain named. No end group written: not given here.
Assays:
full-length SHP2^WT = molecular target: T1, full-length SHP2^WT (Homo sapiens, UniProt Q06124); assay: SHP2 activation assay using phosphopeptides (DiFMUP), SHP2 WT; assay type: biochemical; settings: activation of full-length SHP2 WT (0.05 nM) by phosphopeptide; DiFMUP substrate; 60 mM HEPES pH 7.2, 75 mM KCl, 75 mM NaCl, 1 mM EDTA, 0.05% Tween-20, 0.5 mM TCEP; fluorescence read every 25 s for 6 min; mean of N (column N)
T1 construct: Full-length SHP2 constructs were diluted in assay buffer; His6-TEV (N, cleaved yes); made in house; host or cells: E. coli BL21(DE3)
T1 sequence (Q06124 1-593): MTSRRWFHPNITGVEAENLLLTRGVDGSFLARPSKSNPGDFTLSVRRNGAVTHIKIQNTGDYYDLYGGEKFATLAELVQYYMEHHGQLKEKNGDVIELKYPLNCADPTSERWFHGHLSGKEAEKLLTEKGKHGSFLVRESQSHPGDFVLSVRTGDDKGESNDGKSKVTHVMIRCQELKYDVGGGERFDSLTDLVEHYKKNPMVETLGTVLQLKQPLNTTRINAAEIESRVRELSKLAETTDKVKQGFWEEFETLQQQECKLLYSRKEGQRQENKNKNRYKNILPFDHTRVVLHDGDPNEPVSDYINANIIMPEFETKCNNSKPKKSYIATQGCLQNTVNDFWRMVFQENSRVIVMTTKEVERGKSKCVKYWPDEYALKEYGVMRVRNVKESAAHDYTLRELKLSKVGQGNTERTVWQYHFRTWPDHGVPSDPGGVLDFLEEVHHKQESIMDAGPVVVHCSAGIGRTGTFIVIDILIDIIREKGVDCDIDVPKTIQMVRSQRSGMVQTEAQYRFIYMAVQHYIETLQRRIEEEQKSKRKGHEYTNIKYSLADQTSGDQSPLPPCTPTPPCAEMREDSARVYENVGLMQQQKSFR
Method: SHP2 activation assays using phosphopeptides
Full-length SHP2 constructs were diluted in assay buffer (60 mM HEPES pH 7.2, 75 mM KCl, 75 mM NaCl,1 mM EDTA, 0.05% Tween-20, with 0.5 mM TCEP freshly added) to a 2X concentration of 0.1 nM. Peptides were serially diluted in assay buffer, with the last point of the concentration series fully without peptide. 15 μL of peptide and 15 μL of 800 μM DiFMUP was added to a black 96-well half area plate. Right before starting the plate reader assay, 30 μL SHP2 was added to each well a Supplementary Information - page 4 of 18 […]
final concentration of 0.05nM. Kinetic measurements (Ex 358/Em […]) were taken on a BioTek Neo2 plate reader every 25 seconds for 6 minutes. […]
(§1) OD600 reached 0.5. 20 mL of cell suspension was induced at 25 °C using a final concentration of 0.4% arabinose until the OD600 ~ 1 (after approximately 4 hours). The cells were spun down at 4000 rpm for 15 minutes, and the pellet was resuspended in PBS so that the OD600 ~1.5. The cells were stored in the fridge and used within a week.
(§2) For each sample, 75 μL of Dynabeads™ FlowComp™ Flexi Kit were washed twice in 1 mL SH2 buffer (50 mM HEPES pH 7.5, 150 mM NaCl, 1 mM TCEP, and 0.2% BSA) on a magnetic rack.
(§3) The beads were then resuspended in 75 μL of SH2 buffer. SH2 domains were thawed quickly and 20 μM of protein was added to the beads. SH2 buffer was added up to 150 μL, and the suspension was incubated for 1 hour at 4 °C while rotating. After 1 hour, the suspension was placed on a magnetic rack and washed twice with 1 mL SH2 buffer.
(§4) Preparing the phosphorylated cells
(§5) 150 μL of prepared cells per sample were spun down for 4000 rpm for 5 minutes at 4 °C.
(§6) Kinase screen buffer was prepared (50 mM Tris, 10 mM magnesium chloride, 150 mM sodium chloride; add 2 mM sodium orthovanadate and 1 mM TCEP fresh) and the cells of each sample were resuspended in 100 μL kinase screen buffer. Kinases c-Src, c-Abl, AncSZ, Eph1B were added to a final concentration of 2.5 µM each, creatine phosphate was added to a final concentration of 5 mM, and phosphokinase was added to a final concentration of 50 µg/mL. The suspension was incubated at 37 °C for 5 minutes before ATP was added to a final concentration of 1 mM. This mixture was incubated at 37 °C for 3 hours. After 3 hours, EDTA was added to a final concentration of 25 mM to quench the reaction. The input library control sample was not phosphorylated. These cells were spun down at 4000 rpm for 15 minutes at 4 °C. The cells were then resuspended in 100 µL of SH2 buffer + 0.1% BSA. Phosphorylation of the cells was confirmed by labeling with the PY20-PerCP-eFluor 710 pan-phosphotyrosine antibody followed by analysis via flow cytometry.
(§7) Enriching for cells displaying high-affinity phosphopeptide ligands
(§8) 100 μL of phosphorylated cells were mixed with 75 µL SH2-beads for 1 hour at 4 °C while rotating. After 1 hour, samples were placed on a magnetic rack, supernatant was removed and 1 mL SH2 buffer was added to each sample. This was rotated for 30 minutes at 4 °C to wash the beads.
(§9) After this wash, the beads were placed on a magnetic rack, the supernatant was removed and 50 µL […]
(§10) Preparing sequencing samples & deep sequencing
(§11) All SH2-selected samples and the input library control were resuspended in 50 µL MilliQ water, vortexed, and boiled for 10 minutes at 100 °C. The boiled lysate was used as the DNA template in a PCR reaction using the TruSeq-eCPX-Fwd and TruSeq-eCPX-Rev primers. The mixture resulting from this PCR was used directly into a second PCR to append Illumina sequencing adaptors and Supplementary Information - page 5 of 18

SHP2 N-SH2^WT domain = molecular target: T2, SHP2 N-SH2^WT domain (Homo sapiens, UniProt Q06124); assay: SH2 specificity profiling by bacterial peptide display (Human pTyr and pTyr-Var Libraries), N-SH2 WT; assay type: binding; settings: for >3.2 --> N-WT-Ave: average enrichment score above cutoff of 3.2 (true binder); for N-WT-Ave (enrichment score): bacterial peptide display, enzymatically phosphorylated displayed peptides, SH2-coated beads, deep sequencing, frequency in enriched sample / input, average, Human pTyr Library N = 3, pTyr-Var Library N = 2
T2 construct: SHP2 SH2 domains were cloned into a His6-SUMO-SH2-Avi construct; His6-SUMO (N, cleaved yes); made in house; host or cells: E. coli C43(DE3), co-expressed with BirA
T2 sequence (Q06124 6-102 limits assumed): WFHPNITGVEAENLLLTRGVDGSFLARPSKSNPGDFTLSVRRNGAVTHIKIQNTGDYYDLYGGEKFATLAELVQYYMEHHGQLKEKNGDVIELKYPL
Method: (§12) Next, we characterized the sequence specificity of the SH2 mutants relative to their wild-type counterparts in a large-scale, unbiased screen. […] For each peptide in a library, an enrichment score is calculated from the deep sequencing data as the frequency of the peptide in the SH2-enriched sample divided by the frequency of the peptide in the unenriched input sample ([34]). For this study, we used two largely non-overlapping libraries, both encoding known human phosphosites. […] The Human pTyr Library consists of 1,916 sequences derived from known phosphorylation sites in the human proteome, along with another 617 control mutants ([35]). […]
(§13) SH2 specificity profiling using bacterial peptide display
(§14) Preparation of bacterial cells
as §1, with “Electrocompetent MC1061 cells were transformed with ~100 ng of the respective library. After 1 hour recovery in 1 mL LB, cells were further diluted into 250 mL LB + 0.1% chloramphenicol. 1.8 mL of overnight culture was used to inoculate 100 mL LB + 0.1% chloramphenicol, and grown until OD600 reached” for “OD600 reached”
as §2, §3, §4, §5, §6, §7, §8, §9, §10
as §11, with “18 […]” for “18”
(§15) unique 5’ and 3’ indices to each sample (D700 and D500 series primers). The resulting PCR mixtures […]

SHP2 C-SH2^E139D domain = molecular target: T3, SHP2 C-SH2^E139D domain (Homo sapiens, UniProt Q06124, E139D); assay: SH2 specificity profiling by bacterial peptide display (Human pTyr and pTyr-Var Libraries), C-SH2 E139D; assay type: binding; settings: for >3.2 --> C-E139D-Ave: average enrichment score above cutoff of 3.2 (true binder); for C-E139D-Ave (enrichment score): bacterial peptide display, frequency in enriched sample / input, average, Human pTyr Library N = 3, pTyr-Var Library N = 2
T3 construct: SHP2 SH2 domains were cloned into a His6-SUMO-SH2-Avi construct; His6-SUMO (N, cleaved yes); made in house; host or cells: E. coli C43(DE3), co-expressed with BirA
T3 sequence (Q06124 112-216 E139D limits assumed): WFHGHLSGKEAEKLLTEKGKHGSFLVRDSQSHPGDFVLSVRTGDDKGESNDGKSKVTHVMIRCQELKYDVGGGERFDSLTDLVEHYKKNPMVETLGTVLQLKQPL
Method: as §12, §13, §14
as §1, with “Electrocompetent MC1061 cells were transformed with ~100 ng of the respective library. After 1 hour recovery in 1 mL LB, cells were further diluted into 250 mL LB + 0.1% chloramphenicol. 1.8 mL of overnight culture was used to inoculate 100 mL LB + 0.1% chloramphenicol, and grown until OD600 reached” for “OD600 reached”
as §2, §3, §4, §5, §6, §7, §8, §9, §10
as §11, with “18 […]” for “18”
as §15

SHP2 C-SH2^WT domain = molecular target: T4, SHP2 C-SH2^WT domain (Homo sapiens, UniProt Q06124); assay: SH2 specificity profiling by bacterial peptide display (Human pTyr and pTyr-Var Libraries), C-SH2 WT; assay type: binding; settings: for >3.2 --> C-WT-Ave: average enrichment score above cutoff of 3.2 (true binder); for C-WT-Ave (enrichment score): bacterial peptide display, frequency in enriched sample / input, average, Human pTyr Library N = 3, pTyr-Var Library N = 2
T4 construct: SHP2 SH2 domains were cloned into a His6-SUMO-SH2-Avi construct; His6-SUMO (N, cleaved yes); made in house; host or cells: E. coli C43(DE3), co-expressed with BirA
T4 sequence (Q06124 112-216 limits assumed): T3 sequence (Q06124 112-216 E139D limits assumed) with D28E
Method: as §12, §13, §14
as §1, with “Electrocompetent MC1061 cells were transformed with ~100 ng of the respective library. After 1 hour recovery in 1 mL LB, cells were further diluted into 250 mL LB + 0.1% chloramphenicol. 1.8 mL of overnight culture was used to inoculate 100 mL LB + 0.1% chloramphenicol, and grown until OD600 reached” for “OD600 reached”
as §2, §3, §4, §5, §6, §7, §8, §9, §10
as §11, with “18 […]” for “18”
as §15

>3.2 --> N-WT-Ave (SHP2 N-SH2^WT domain)	N-WT-Ave (enrichment score) (SHP2 N-SH2^WT domain)	>3.2 --> C-E139D-Ave (SHP2 C-SH2^E139D domain)	C-E139D-Ave (enrichment score) (SHP2 C-SH2^E139D domain)	>3.2 --> C-WT-Ave (SHP2 C-SH2^WT domain)	C-WT-Ave (enrichment score) (SHP2 C-SH2^WT domain)	Molecule	EC50 (full-length SHP2^WT) [µM]
						CC(=O)NCC(=O)N[C@@H](CC(=O)O)C(=O)N[C@@H](CCCCN)C(=O)N[C@@H](CCC(N)=O)C(=O)N[C@H](C(=O)N[C@@H](CCC(=O)O)C(=O)N[C@@H](Cc1ccc(OP(=O)(O)O)cc1)C(=O)N[C@@H](CC(C)C)C(=O)N[C@@H](CC(=O)O)C(=O)N[C@@H](CC(C)C)C(=O)N[C@@H](CC(=O)O)C(=O)N[C@@H](CC(C)C)C(=O)N[C@@H](CC(=O)O)C(N)=O)C(C)C	26.2
FALSE (>3.2 -->)	0.7728	FALSE (>3.2 -->)	0.8092	FALSE (>3.2 -->)	0.7595	SDRKGGSYTQAASSD (also: phosphorylated, site not given here) [1A01_HUMAN_344]	
FALSE (>3.2 -->)	0.8572	FALSE (>3.2 -->)	0.8393	FALSE (>3.2 -->)	0.777	MKGDYYRYLAEVATG (also: phosphorylated, site not given here) [1433G_HUMAN_133]	
FALSE (>3.2 -->)	0.9356			FALSE (>3.2 -->)	0.8982	MKGDAARYLAEVATG (bacterially displayed) [1433G_HUMAN_133_YA]	
